The source of these data is article PMC11761711, “Insights into the flexibility of the domain‐linking loop in actinobacterial coproheme decarboxylase through structures and molecular dynamics simulations” (Protein Science : A Publication of the Protein Society, 2025).

The series deals with the molecule itself. The experiment in a line: cryo-EM structure; apo-CdChdC, SEC-purified, 70 to 120 uM on grids, single-particle reconstruction with C5 symmetry, 2.27 A.

B1: Corynebacterium diphtheriae coproheme decarboxylase (enzyme)
chain: MAEKLNFEELNSMQRYSQFAVFRAIPGALGSDRAEIVAQAQSFFDGLETAGKVEVRGIYDLAGCRAEADFMIWWIAEEFEEIQAAFARFRRETVLGQVSEVAWLGNSLHRPAEFNRSHLPSFIMGEIPGDWITVYPFVRSYDWYIMDPQKRRKILAEHGQAARDFPDVRANTVPAFALGDYEWMLAFEAPRLDRIVDLMHKMRYTEARLHVREETPFFTGRRVSEVSELVNVLP
notes: coproheme decarboxylase (ChdC) of Corynebacterium diphtheriae, wild type; Homopentamer; also called CdChdC; apo-CdChdC; source: recombinant, expressed and purified as described previously (Michlits et al. 2020); Ni2+ column, HRV 3C protease cleavage, SEC
B1: the “stoichiometry N” value is 5.
